Changes are numbered by the printed parent chain. Names and notes keep the numbering of the source.
T1: mCCR8 (UniProt P56484 1-353, limits assumed)
T1 construct: whole, on cells; also called 293T-mCCR8
T1 sequence (looked up): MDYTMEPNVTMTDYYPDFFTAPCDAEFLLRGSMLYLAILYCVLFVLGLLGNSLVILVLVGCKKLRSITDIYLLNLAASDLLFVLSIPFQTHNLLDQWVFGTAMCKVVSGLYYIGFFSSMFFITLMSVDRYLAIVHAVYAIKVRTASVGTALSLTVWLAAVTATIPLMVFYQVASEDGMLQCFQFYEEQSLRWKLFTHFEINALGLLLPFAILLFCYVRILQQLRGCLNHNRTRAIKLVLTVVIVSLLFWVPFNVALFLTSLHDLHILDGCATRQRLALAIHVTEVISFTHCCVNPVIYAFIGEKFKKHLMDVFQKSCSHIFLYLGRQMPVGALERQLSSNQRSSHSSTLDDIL

B1: ABC815 (antibody, human IgG1, kappa, V domains shown)
VH: VQLVESGGGLVQPGRSLKLSCAASGFTFSNYDMAWVRQVPTKGLEWVASVSPSAGTTYYRDSVKGRFTVSRDIAKSSLYLQMDSLRSEDTATYYCARHMIYRGYNYAVSYYVMDVWGQGASVTVSS
VL: IQLTQSPSLLSASVGDRVTLTCKGSQNINSYLAWYQQKLGEAPKLLIYNTNSLQTGIPSRFSGSGSGTDYTLTISSLQPEDVATYFCYQYNNGYTWTFGGGTKLELKR
B2: ABC523 (antibody, human IgG1, kappa, V domains shown)
VH: EVKLVESGGGLVQPGNSLTLSCVASGFTFSNYGMHWIRQAPKKGLEWIAMIYSDSSKMFYTDTVKGRFTISRDNSKNTLYLEMNSLRSEDTAMYYCAARDYGYKGAHYYVMDAWGQGASVTVSS
VL: DIQMTQSPSFLSASVGDRVTIICKSSQNINRYLNWYQQKLGEAPKLLIYNANNLQTGIPSRFSGGGSGTDFTFTIGSLRPEDVATYFCLQHKSWPYTFGPGTKLELKR
B3: ABC816 (antibody, human IgG1, kappa, V domains shown)
VH: AVQLVESGGGLVQPKESLKISCAASGFTFSNAAMYWVRQAPGKGLEWVARIRTKPNNYATYYADSVKGRFTISRDDSKSMVYLQMDNLKTEDTAMYYCTAAVYSSYGYFDYWGQGVMVTVSS
VL: DIQMTQSPASLSASLEEIVTITCQASQNNGNWLAWYQQKPGKSPQLLIYGTTNLADGVPSRFSGSRSGTQYSLKISRLQVEDIGIYYCQQASSTPWTFGGGTKLELKR
B4: ABC821 (antibody, human IgG1, kappa, V domains shown)
VH: EVQLVESGGGLVQPGRSLKLSCVASGFTFNYYWMTWIRQAPGKGLEWVASITNTGDTTYYPDSVKGRFTISRHNAKSTLYLQMNSLRSEDTATYYCSRGDGGSSFWIAYWGQGTLVTVSS
VL: DVVMTQTPVSLPVSLGGQASISCRSSQSLVHRSGNTYLHWYLQKPGQSPQLLIYRVSNRFSGGPDRFSGSGSGTTFTLKISRVEPEDLGDYYCLQTTHFPPTFGSGTKLEIKR
B5: ABC820 (antibody, human IgG1, kappa, V domains shown)
VH: EVQLVESGGGLVQPGRSLKLSCAASGFTFSDYYMAWVRQAPKKGLEWVASISYEGRSTYYGDSVKGRFTISRDDEKSILYLQMSGPRSEDTATYYCARQDLYYGRNPSWFLDFWGPGTMVTVSS
VL: IVMTQSPTSMSISVGGRVTMNCKASQNVGSNVDWFQQKTGQSPKLLIYKTTSRYTGVPDRFTGSGSKTDFTFTISNMQAEDLAVYYCLQSNSFPYTFGAGTKLELKR
B6: ABC527 (antibody, human IgG1, kappa, V domains shown)
VH: EVQLVESGGGVVQPGRSLRLSCAASGFPFSFYGMAWVRQAPGKGLEWVASISYDGSDTYYRDSVKGRFTISRDNSKNTLYLQMNSLRAEDTAVYYCAKTSGYGSFDYWGQGTLVTVSS
VL: DIVMTQTPLSLSVTPGQPASISCRSSRSLVHRNGDTYLHWYLQKPGQSPQLLIYRVSNRFAGVPDRFSGSGSGTDFTLKISRVEAEDVGVYYCLQGTHLPPTFGQGTKLEIKR
B7: ABC819 (antibody, human IgG1, kappa, V domains shown)
VH: EVQLVESGGGLMQPRRSLKLSCAASGFPFSDYNMAWVRQAPKKGLEWVASITYAGTKTYYGDSVKGRFTISRDDAKSTLYLQMNSLRSEDTATYYCARQDLYYGRNQYWYLDFWGPGTMVTVSS
VL: DIVMTQSPTSMSKSVGDRVTMSCKASQNVGSNVDWYQQKTGQSPKLLIYKTSSRFTGVPDRFTGSGSRTDFTFTISSMQAEDLALYYCVQSNSYPYTFGAGTKLELRT
B8: ABC519 (antibody, human IgG1, kappa, V domains shown)
VH: EVHLVESGGGFVRPGRSMKLSCAASGFPFSFYGMAWVLQTPTKGLEWVASISYDGSDTYYRDSVKGRFAISRDNAKNTLYLQMESLRSEDTATFYCAKTSGYGSFDYWGQGTLVTVSS
VL: DIVMTQSPVSLPVSFGGQASISCRSSRSLVHRNGDTYLHWYLQKPGQSPQLLIYRVSNRFAGVPDRFSGSGSGTDFTLKISRVESEDLGLYYCLQGTHLPPTFGSGTKLEIKR
B9: ABC531 (antibody, human IgG1, kappa, V domains shown)
VH: EVQLVESGGGVVQPGGSLRLSCAASGFTFSNYGMHWIRQAPGKGLEWIAMIYSDSSKMFYTDTVKGRFTISRDNSKNTLYLQMNSLRAEDTAVYYCAARDYGYKGAHYYVMDAWGQGTTVTVSS
VL: DIQMTQSPSSLSASVGDRVTITCKSSQNINRYLNWYQQKPGKAPKLLIYNANNLQTGIPSRFSGSGSGTDFTFTISSLQPEDIATYYCLQHKSWPYTFGQGTKLEIKR
B10: ABC814 (antibody, human IgG1, kappa, V domains shown)
VH: EVQLVESGGGLVQPGRSLKLSCVASGFTFSDYYMAWVRQAPKKGLEWVASISYEGRSTYYGDSVKGRFTISRDDAKSTLYLQMNSLRSEDTATYYCARQDLYYGHKSYWYLDFWGPGTMVTVSS
VL: DIVMTQSPTSMSISVGDRVTMNCKASQNVGSNVDWYQQKPGQSPKLLIYKTSSRSTGVPDRFTGSGSRTDFTFTITNMQAEDLAVYYCMQSNSYPFTFGAGTKLELKR
B11: ABC818 (antibody, human IgG1, kappa, V domains shown)
VH: B7 VH with M12V, R15G, P28T, N33Y, T56S, R105H, Q107P, L111F
VL: B7 VL with K13I, S22N, S77N, R107K, T108R
B12: ABC823 (antibody, human IgG1, kappa, V domains shown)
VH: EVQLVESGGGLVQPRRSLKLSCAASGFTFSDYYMAWVRQAPKKGLEWVASIGYEGSGVYYGDSVKGRFTISRDDAKSSLYLQMNSLRSEDTATYYCARQELYYGHNPYWYFDFWGPGTMVTVSS
VL: B10 VL with P40T, S55F, R68K, D70A, T72S, T76S, F96Y
B13: ABC137-H2.hu12.IgG1.SDIE (antibody, V domains shown)
VH: EVQLVESGGGLVQPGGSLRLSCAASGFPFNTFAMNWVRQAPGKGLEWLARIRSKSNNYATYYADSVKDRFTISRDNAKRSLYLQMNSLRAEDTAVYYCVRGKENNYGYAMDYWGQGTTVTVSS
VL: DIVMTQSPLSLPVTPGEPASISCRSSKSLLHSNGNTYLYWFLQKPGQSPQLLIYRMSNLASGVPDRFSGSGSGTDFTLKISRVEAEDVGVYYCMQHVEYPFTFGGGTKLEIKR
notes: Parental clone ABC025.H2G.SDIE; IgG1 with SDIE mutations
B14: H2C (antibody, human IgG1, kappa, V domains shown)
VH: B13 VH with K78R
VL: B13 VL with K27Q, V97L, G105Q
B15: ABC050-B1.hu13.IgG1.SDIE (antibody, V domains shown)
VH: EVQLVESGGGLVQPGGSLKLSCAASGFTFNTYAMNWVRQASGKGLEWVARIRSKSNNYATYYADSVKDRFTISRDDSKNTLYLQMNSLKTEDTAVYYCVREVRRDYALDQWGQGTMVTVSS
VL: B13 VL with N33S
notes: IgG1 with SDIE mutations, by its name
B16: H2B (antibody, human IgG1, kappa, V domains shown)
VH: B13 VH
VL: B13 VL with K27Q, V97L, G105Q
B17: H2A (antibody, human IgG1, kappa, V domains shown)
VH: B13 VH with R79N
VL: B13 VL with K27Q, V97L, G105Q
B18: ABC051-B1.hu14.IgG1.SDIE (antibody, V domains shown)
VH: B15 VH
VL: B13 VL with G34A
notes: as for B15
B19: H2I (antibody, human IgG1, kappa, V domains shown)
VH: B13 VH with K78R
VL: B13 VL with K27Q, G34A, V97L, G105Q
B20: ABC049-B1.hu12.IgG1.SDIE (antibody, V domains shown)
VH: B15 VH
VL: B13 VL with N33Q
notes: as for B15

These binders were tested against T2, cynomolgus macaque CCR8 (cynomolgus macaque, UniProt G7NYJ2 1-355) (assay: flow cytometry, 293T cells overexpressing cynomolgus CCR8).
T2 construct: whole, on cells; Overexpressed on 293T cells (293T-cCCR8) and Jurkat cells (Jurkat-cynoCCR8); also called cCCR8; cyno CCR8
Protocol: (§1) Binding specificity of the anti-CCR8 antibodies (mAbs) was tested by FACS using several cell lines. […] The binding titration of the anti-CCR8 antibodies to CCR8 transfectants was performed by serial dilution of antibodies. The diluted antibody (50 μl) in flow cytometry buffer (PBS, 0.5% BSA, 1 mM EDTA) was incubated with cells (50 μl) at a concentration of 2 million cells/ml on ice for 30 min. After two washes with flow cytometry buffer, bound antibody was detected with Alexa647-labeled F(ab′)2 fragment goat anti-human IgG (Jackson ImmunoResearch #709-606-149) (1:500 dilution) for 20 minutes on ice. The fluorescence was measured on a Cytek Aurora cytometer, after two washes with flow cytometry buffer. The data were analyzed with GraphPad Prism 8.0 software to determine EC50 values.

T2 sequence (G7NYJ2 entry or part of it): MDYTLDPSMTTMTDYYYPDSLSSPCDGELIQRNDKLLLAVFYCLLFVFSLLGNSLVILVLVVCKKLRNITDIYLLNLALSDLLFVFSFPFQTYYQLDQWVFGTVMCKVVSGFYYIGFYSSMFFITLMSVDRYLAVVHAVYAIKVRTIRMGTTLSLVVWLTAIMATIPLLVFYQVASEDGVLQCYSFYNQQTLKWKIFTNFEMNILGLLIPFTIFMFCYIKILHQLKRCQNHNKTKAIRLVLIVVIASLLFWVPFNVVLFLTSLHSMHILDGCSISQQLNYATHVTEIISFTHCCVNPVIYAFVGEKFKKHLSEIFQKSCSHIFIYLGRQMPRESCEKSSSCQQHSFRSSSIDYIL

EC50 [nM]	binding result	Binder
6.47	–	B1
0.26	–	B2
–	no binding	B3
–	no binding	B4
0.09	–	B5
2.14	–	B6
7.11	–	B7
0.25	–	B8
0.554	–	B9
0.101	–	B10
0.537	–	B11
0.884	–	B12

Each binder was assayed against T3, Human CCR8 (C-C chemokine receptor type 8) (human, UniProt P51685 1-355) (assay: flow cytometry, 293T cells overexpressing human CCR8).
T3 construct: overexpressed on HEK293T (293T-hCCR8), Jurkat-hCCR8 and CHEM1-CCR8 cells; also called hCCR8
Protocol: as §1

T3 sequence (P51685 whole entry): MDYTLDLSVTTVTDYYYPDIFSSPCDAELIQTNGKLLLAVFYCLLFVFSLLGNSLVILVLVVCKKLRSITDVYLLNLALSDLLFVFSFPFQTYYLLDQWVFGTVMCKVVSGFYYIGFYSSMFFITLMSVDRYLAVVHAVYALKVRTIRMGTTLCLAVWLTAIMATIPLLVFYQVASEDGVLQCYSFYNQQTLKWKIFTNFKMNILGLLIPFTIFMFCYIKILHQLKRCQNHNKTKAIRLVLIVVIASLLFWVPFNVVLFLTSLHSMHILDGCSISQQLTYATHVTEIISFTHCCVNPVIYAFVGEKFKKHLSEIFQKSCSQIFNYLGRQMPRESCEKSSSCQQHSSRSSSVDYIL

EC50 [nM]	binding result	Binder
6.47	–	B1
–	no binding	B4
0.103	–	B5
1.74	–	B6
8.51	–	B7
1.44	–	B9
0.0828	–	B10
0.744	–	B11
1.51	–	B12

The binders below were run against T1, mCCR8 (assay: flow cytometry, 293T cells with mCCR8).
Protocol: as §1

binding result	EC50 [nM]	Binder
no binding	–	B1
no binding	–	B2
–	0.133	B3
–	6.74	B4
no binding	–	B5
no binding	–	B6
no binding	–	B7
no binding	–	B8
no binding	–	B9
no binding	–	B10
no binding	–	B11
no binding	–	B12

Each binder was assayed against T3, Human CCR8 (C-C chemokine receptor type …) (assay: flow cytometry on cells carrying human CCR8).

binding result	Binder
binds	B13
binds	B14
binds	B15
binds	B16
binds	B17
binds	B18
binds	B19
binds	B20

What follows are binders tested against T3, Human CCR8 (C-C chemokine receptor type …) (assay: flow cytometry, Hut78 cells (endogenous human CCR8)).
Protocol: as §1

binding result	EC50 [nM]	Binder
no binding	–	B2
no binding	–	B3
–	19.4	B5
no binding	–	B8
–	11.6	B10

— patent publication US20250289896A1 (ANALYTICAL BIOSCIENCES SHANGHAI, published 2025)
